Assay results taken from IntAct's records for PubMed 17965270.

B1: B-box zinc finger protein 21 (Arabidopsis thaliana (Mouse-ear cress)), Q9LQZ7 (parent)
chain: MKIRCDVCDKEEASVFCTADEASLCGGCDHQVHHANKLASKHLRFSLLYPSSSNTSSPLCDICQDKKALLFCQQDRAILCKDCDSSIHAANEHTKKHDRFLLTGVKLSATSSVYKPTSKSSSSSSSNQDFSVPGSSISNPPPLKKPLSAPPQSNKIQPFSKINGGDASVNQWGSTSTISEYLMDTLPGWHVEDFLDSSLPTYGFSKSGDDDGVLPYMEPEDDNNTKRNNNNNNNNNNNTVSLPSKNLGIWVPQIPQTLPSSYPNQYFSQDNNIQFGMYNKETSPEVVSFAPIQNMKQQGQNNKRWYDDGGFTVPQITPPPLSSNKKFRSFW
partner: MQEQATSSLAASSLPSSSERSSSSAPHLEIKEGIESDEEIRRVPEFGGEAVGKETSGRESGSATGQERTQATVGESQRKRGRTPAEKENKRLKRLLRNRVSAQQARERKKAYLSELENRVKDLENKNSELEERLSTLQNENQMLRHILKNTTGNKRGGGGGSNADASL

Variants of: B1
Details: with hy5_arath HY5, O24646

effect of a mutation on the interaction	Variant
disrupting interaction	MKIRCDVCDKEEASVFCTADEASLCGGCDHQVHHANKLASKHLRFSLLYPSSSNTSSPLCDICQDKKALLFCQQARAILCKDCDSSIHAANEHTKKHDRFLLTGVKLSATSSVYKPTSKSSSSSSSNQDFSVPGSSISNPPPLKKPLSAPPQSNKIQPFSKINGGDASVNQWGSTSTISEYLMDTLPGWHVEDFLDSSLPTYGFSKSGDDDGVLPYMEPEDDNNTKRNNNNNNNNNNNTVSLPSKNLGIWVPQIPQTLPSSYPNQYFSQDNNIQFGMYNKETSPEVVSFAPIQNMKQQGQNNKRWYDDGGFTVPQITPPPLSSNKKFRSFW [D75A]
disrupting interaction	MKIRCDVCDKEEASVFCTADEASLCGGCDHQVHHANKLASKHLRFSLLYPSSSNTSSPLCDICQDKKALLFCQQDRAILCKDCASSIHAANEHTKKHDRFLLTGVKLSATSSVYKPTSKSSSSSSSNQDFSVPGSSISNPPPLKKPLSAPPQSNKIQPFSKINGGDASVNQWGSTSTISEYLMDTLPGWHVEDFLDSSLPTYGFSKSGDDDGVLPYMEPEDDNNTKRNNNNNNNNNNNTVSLPSKNLGIWVPQIPQTLPSSYPNQYFSQDNNIQFGMYNKETSPEVVSFAPIQNMKQQGQNNKRWYDDGGFTVPQITPPPLSSNKKFRSFW [D84A]
disrupting interaction	MKIRCDVCDKEEASVFCTAAEASLCGGCDHQVHHANKLASKHLRFSLLYPSSSNTSSPLCDICQDKKALLFCQQDRAILCKDCDSSIHAANEHTKKHDRFLLTGVKLSATSSVYKPTSKSSSSSSSNQDFSVPGSSISNPPPLKKPLSAPPQSNKIQPFSKINGGDASVNQWGSTSTISEYLMDTLPGWHVEDFLDSSLPTYGFSKSGDDDGVLPYMEPEDDNNTKRNNNNNNNNNNNTVSLPSKNLGIWVPQIPQTLPSSYPNQYFSQDNNIQFGMYNKETSPEVVSFAPIQNMKQQGQNNKRWYDDGGFTVPQITPPPLSSNKKFRSFW [D20A]
